Assay results as given in paper PMC12830992, “Insights into the self-assembly and interaction of sars-cov-2 fusion peptides with biomimetic plasma membranes” (Nature Communications, 2025).

Biological target: the molecule itself
Assay: atomic force microscopy (topography); peptide mixed at 5 mol% with plasma membrane lipid mixture, Langmuir-Blodgett monolayer compressed to 20 mN/m (liquid-expanded phase), transferred onto mica, imaged in air at room temperature, Peak Force mode

Protein | binding result
KQYGDCLGDIAARDLICAQKFN (Spike (S) glycoprotein of SARS-CoV-2, S2 subunit fusion domain, residues 835-856) [SARS-CoV-2 Spike fusion peptide FP2 (residues 835-856)] | binds
SFIEDLLFNKVTLADAGFIKQY (Spike (S) glycoprotein of SARS-CoV-2, S2 subunit fusion domain, residues 816-837) [SARS-CoV-2 Spike fusion peptide FP1 (residues 816-837)] | binds
